Where a chain is given by its changes, count along the chain named.
B1: 16.7Chi (antibody, V domains shown)
VH: EVLLQQSGPELVKPGASVKISCKASGYTFTDYNMDWVKQSHGKSLEWIGDINPNVGDTIYNQKFKGKATLTVDKSSSTAYMELRSLTSEDSAVYYCVRSDDDYSWFAHWGQGTLVTVSA
VL: SIVMTQTPKFLLVSAGDRVTITCKASQSVSNDVAWYQQKSGQSPKLLIYYASNRYTGVPDRFTGSGYGTDFTFTISTVQAELAVYFCQQDSSSPLTFGAGTKLELKR
notes: also called chimeric antibody of the variable region of M16.7 fused with the constant region of human IgG1
B2: 106.17Chi (antibody, V domains shown)
VH: B1 VH with S21P, V55N, K63N, G66D, D73N, S91T, D102N, A107T, H108Y
VL: B1 VL
notes: also called chimeric antibody of the variable region of M106.17 fused with the constant region of human IgG1
B3: GP42-10 (antibody, V domains shown)
VH: QVKLQQSGPDLVKPGSLVKISCKASGYTFSNYDINWVKQRPGQGLEWIGWIDPGNGRTKYNEKFEDKATLTADKSSSTAYMQLSSLTSEDSAVYFCARVGDDYDGDFDYWGQGTTVTVSS
VL: DIELTQSPTIMSASPGEKVTMTCRASESVDSYGNSFMHWYQQKPGLPPKLLIYRASNLESGIPARFSGSGSRTDFTLTINPVEADDVATYYCQQSNEYPYTFGGGTKLEIKR
notes: Phage display clone
B4: GP31-52 (antibody, V domains shown)
VH: B3 VH with K3Q, S16A, T28S, S30T, E65T, D66G, T69S, Q82V, D90N, D106G
VL: DIELTQSPSIMAASLGQKVTMTCSASSSVSSSYLHWYQQKSGASPKPLIHRTSNLASGVPARFSGSGSGNSYSLTISSMEAEDVATYYCFQGSGYPYTFGGGTKLEIKR
notes: Phage display clone
B5: GP42-58 (antibody, V domains shown)
VH: B3 VH with S16A, S30T, N31S, N55D, D66G, T69S, Q82L, E89D, D90N, D106G
VL: B3 VL with T9A, M21I, T22S, R24S, H38N, L46Q, A64V, S69G
notes: Phage display clone
B6: GP42-27 (antibody, V domains shown)
VH: QVKLQESGAELVRPGTSVKISCKASGYTFTNYDINWVKQRPGQGLEWIGWIDPGDGRTKYNENFKDKASLTADKSSSTAYMQLSSLTSEDSAVYYCARVGDDYDGGFDYWGQGTTVTVSS
VL: DIELTQSPASLAVSLGQRATISCRASESVDSYGNSFMHWYQQKPGQPPRLLIYAASNQESGIPARFSGSGSRTDFTLTINPVEADDVATYYCQQSYEDPYTFGGGTKLELKR
notes: Phage display clone
B7: BGF2A2-92 (antibody, V domains shown)
VH: EVQLVESGGGLVQPGGSLKLSCAASGFTFSDYYMYWVRQTPEKRLEWVATISDGGDYTYYPDSVKGRFTISRDNAKNNLYLQMSSLKSEDTAMYYCAREGDYYGPFAYWGQGTTLTVSS
VL: DIVMTQSQKFMSTSVGDRVSITCKASQNVGTAVAWYQQKPGQSPKALIYSASYRYSGVPDRFTGSGSGTDFTLTISNVQSEDLAEYFCQQYNSYPYTFGGGTKLEIKR
notes: Phage display clone
B8: 34.22Chi (antibody, V domains shown)
VH: QVQLQQSGAELVRPGVSVKISCKGSGYTFTDYSIHWVKQSHAKSLEWIGVISSYYGDARHNQKFKGKATMTVDKSSSTAYMELARLTSEDSAIYYCARDGYYGYAMDYWGQGTSVTVSS
VL: DVVMTQTPLSLPVSLGDQASISCRSTQSLVHSNGNTYLHWYLQKPGQSPKLLIYKVSYRFSGVPDRFSGSGSGTDFTLKISRVEAEDLGVYFCSQSTHVPFTFGSGTKLEIKR
notes: also called chimeric antibody of the variable region of M34.22 fused with the constant region of human IgG1
B9: BGF33-19 (antibody, V domains shown)
VH: QVQLQQSGAELVRPGTSVKVSCKASGYAFTNYLIEWVKQRPGQGLEWIGVINPGSGGTNYNEKFKGKATLTADKSSSTAYMQLSSLTSDDSAVYFCAREGEKHSYYFDYWGQGTTLTVSS
VL: DIVLTQSPASLAVSLGQRATISCRASESVDSYGDSFMHWYQQKPGQPPKLLIYLASNLESGVPARFSGSGSRTDFTLTIDPVEADDAATYYCQQNNEDPPTFGGGTKLEIKR
notes: Phage display clone
B10: GP42-09 (antibody, V domains shown)
VH: QVKLQQSGAELVRPGALVKLSCKASGFNIKDYYMHWVKQRPEQGLEWIGWIDPENGNTIYDPKFQGKASITADTSSNTAYLQLSSLTSEDSAVYFCARVGDDYDGDFDYWGQGTTVTVSS
VL: B6 VL with N34D, R49K, A54R, Q58L, L110I
notes: Phage display clone

What was measured:
[1] = target: T1, denatured granulysin (10His tag, expressed in 293T cells, run on denaturing SDS-PAGE) (UniProt P22749 23-145, limits assumed); experiment: blot of denaturing SDS-PAGE probed with the antibody, anti-human-HRP
T1 construct: Same protein as native granulysin but denatured; probed on a blot with the test antibodies and anti-human-HRP; not shown: 10His tag
T1 sequence (looked up): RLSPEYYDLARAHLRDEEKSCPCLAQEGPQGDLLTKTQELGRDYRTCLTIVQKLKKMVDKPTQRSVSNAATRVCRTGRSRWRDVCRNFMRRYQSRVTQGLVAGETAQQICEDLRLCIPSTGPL

[2] = target: T2, granulysin mutant RRRR97/100/104/108AAAA (Homo sapiens (Human), UniProt P22749 23-145, limits assumed); experiment: ELISA, antibody coated, His-tagged mutant granulysin detected with anti-His-HRP
T2 construct: Expressed in 293T cells, culture supernatant used; not shown: His tag
T2 chain: T1 sequence (looked up) with R75A, R78A, R82A, R86A

[3] = target: T3, granulysin mutant RRRRR94/97/100/102/104AAAAA (Homo sapiens (Human), UniProt P22749 23-145, limits assumed); experiment: as above
T3 construct: not shown: His tag
T3 chain: T1 sequence (looked up) with R72A, R75A, R78A, R80A, R82A

Binder	binding result [1]	binding result [2]	binding result [3]
B1	no binding		
B2	no binding		
B3	no binding		
B4	no binding		
B5	no binding		
B6	no binding		
B7		no binding	
B8	no binding		
B9		no binding	no binding
B10	no binding		
